The text below walks through data of paper PMC7567794 (Scientific Reports, 2020).

For this test, the target named is T1, tissue factor (S33 to E251) (Homo sapiens, UniProt P13726).
T1 construct: tissue factor (TF), residues S33 to E251; the antigen of the antibody D3h44 in PDB 1JPS; The tag was removed with Ulp1; tag-free TF was used; Antigen residues named in the text (S202, K169, P194, I152) follow the numbering of PDB 1JPS, not that of the construct limits; also called TF; antigen; source: E. coli BL21 (DE3), purified (Ni-NTA, SEC); not shown: His6, N-terminal, cleaved; SUMO, …
The test is described as follows: SPR; Biacore 8K; TF immobilised on a CM5 chip by amine coupling (450-750 response units); Fab as analyte; single-cycle kinetics, association 120 s, dissociation 1800 s, no regeneration; PBS with 0.005% Tween-20; three measurements. Particulars: both partners purified.

T1 sequence (P13726 33-251): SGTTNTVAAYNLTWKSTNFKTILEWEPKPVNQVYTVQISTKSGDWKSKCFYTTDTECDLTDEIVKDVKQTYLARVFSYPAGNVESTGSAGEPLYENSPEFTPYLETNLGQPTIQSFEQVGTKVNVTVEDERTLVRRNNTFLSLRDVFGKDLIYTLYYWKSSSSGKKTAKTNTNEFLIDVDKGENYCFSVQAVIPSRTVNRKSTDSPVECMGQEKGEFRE

B1: D3h44 Fab L-H91E (Fab, V domains shown)
VH: EVQLVESGGGLVQPGGSLRLSCAASGFNIKEYYMHWVRQAPGKGLEWVGLIDPEQGNTIYDPKFQDRATISADNSKNTAYLQMNSLRAEDTAVYYCARDTAAYFDYWGQGTLVTVSS
VL: DIQMTQSPSSLSASVGDRVTITCRASRDIKSYLNWYQQKPGKAPKVLIYYATSLAEGVPSRFSGSGSGTDYTLTISSLQPEDFATYYCLQEGESPWTFGQGTKVEIK
notes: as the heavy chain of m2 (PDB 1JPS chain H); as the light chain of m2 (PDB 1JPS chain L) with the stated change; Tag as for m2; source: ExpiCHO, purified (Ni-NTA, SEC)
One may read the Kd as the equilibrium constant for the complex coming apart. Higher therefore signals lower affinity. Usually koff stands for the rate constant with which the complex falls apart. As a reminder, the kon is a measure of how fast the partners come together. Lower therefore signals slow association. B1 returned a Kd of 0.02 nM, a koff of 2.7e-05 s⁻¹ and a kon of 1.4e+06 M⁻¹ s⁻¹.

B2: D3h44 Fab L-H91N (Fab, V domains shown)
VH: EVQLVESGGGLVQPGGSLRLSCAASGFNIKEYYMHWVRQAPGKGLEWVGLIDPEQGNTIYDPKFQDRATISADNSKNTAYLQMNSLRAEDTAVYYCARDTAAYFDYWGQGTLVTVSS
VL: DIQMTQSPSSLSASVGDRVTITCRASRDIKSYLNWYQQKPGKAPKVLIYYATSLAEGVPSRFSGSGSGTDYTLTISSLQPEDFATYYCLQNGESPWTFGQGTKVEIK
notes: as for B1
B2 returned a Kd of 0.2 nM, a koff of 0.00026 s⁻¹ and a kon of 1.3e+06 M⁻¹ s⁻¹.

B3: D3h44 Fab H-N57Y (Fab, V domains shown)
VH: EVQLVESGGGLVQPGGSLRLSCAASGFNIKEYYMHWVRQAPGKGLEWVGLIDPEQGYTIYDPKFQDRATISADNSKNTAYLQMNSLRAEDTAVYYCARDTAAYFDYWGQGTLVTVSS
VL: DIQMTQSPSSLSASVGDRVTITCRASRDIKSYLNWYQQKPGKAPKVLIYYATSLAEGVPSRFSGSGSGTDYTLTISSLQPEDFATYYCLQHGESPWTFGQGTKVEIK
notes: as the heavy chain of m2 (PDB 1JPS chain H) with the stated change; as the light chain of m2 (PDB 1JPS chain L); Tag as for m2; source: ExpiCHO, purified (Ni-NTA, SEC)
On to B3, for which binding was characterised by a dissociation constant (Kd) of 0.015 nM, the koff was determined as 1.8e-05 s⁻¹ and the kon stood at 1.3e+06 M⁻¹ s⁻¹.

B4: D3h44 Fab H-A101V (Fab, V domains shown)
VH: EVQLVESGGGLVQPGGSLRLSCAASGFNIKEYYMHWVRQAPGKGLEWVGLIDPEQGNTIYDPKFQDRATISADNSKNTAYLQMNSLRAEDTAVYYCARDTVAYFDYWGQGTLVTVSS
VL: DIQMTQSPSSLSASVGDRVTITCRASRDIKSYLNWYQQKPGKAPKVLIYYATSLAEGVPSRFSGSGSGTDYTLTISSLQPEDFATYYCLQHGESPWTFGQGTKVEIK
notes: as for B3
B4 came in with a Kd of 0.14 nM, a koff of 0.00018 s⁻¹ and a kon of 1.3e+06 M⁻¹ s⁻¹.

B5: D3h44 Fab H-Y33Q/H-A101R double-point mutant (Fab, V domains shown)
VH: EVQLVESGGGLVQPGGSLRLSCAASGFNIKEYQMHWVRQAPGKGLEWVGLIDPEQGNTIYDPKFQDRATISADNSKNTAYLQMNSLRAEDTAVYYCARDTRAYFDYWGQGTLVTVSS
VL: DIQMTQSPSSLSASVGDRVTITCRASRDIKSYLNWYQQKPGKAPKVLIYYATSLAEGVPSRFSGSGSGTDYTLTISSLQPEDFATYYCLQHGESPWTFGQGTKVEIK
notes: as the heavy chain of m2 (PDB 1JPS chain H) with the stated changes; as the light chain of m2 (PDB 1JPS chain L); Tag as for m2; source: ExpiCHO, purified (Ni-NTA, SEC)
With B5, the binding result is recorded as “no binding”.

B6: D3h44 Fab L-H91S (Fab, V domains shown)
VH: EVQLVESGGGLVQPGGSLRLSCAASGFNIKEYYMHWVRQAPGKGLEWVGLIDPEQGNTIYDPKFQDRATISADNSKNTAYLQMNSLRAEDTAVYYCARDTAAYFDYWGQGTLVTVSS
VL: DIQMTQSPSSLSASVGDRVTITCRASRDIKSYLNWYQQKPGKAPKVLIYYATSLAEGVPSRFSGSGSGTDYTLTISSLQPEDFATYYCLQSGESPWTFGQGTKVEIK
notes: as for B1
B6: the Kd amounted to 17 nM, the koff was 0.059 s⁻¹ and the kon came to 1.6e+07 M⁻¹ s⁻¹.

B7: D3h44 Fab H-K30Q (Fab, V domains shown)
VH: EVQLVESGGGLVQPGGSLRLSCAASGFNIQEYYMHWVRQAPGKGLEWVGLIDPEQGNTIYDPKFQDRATISADNSKNTAYLQMNSLRAEDTAVYYCARDTAAYFDYWGQGTLVTVSS
VL: DIQMTQSPSSLSASVGDRVTITCRASRDIKSYLNWYQQKPGKAPKVLIYYATSLAEGVPSRFSGSGSGTDYTLTISSLQPEDFATYYCLQHGESPWTFGQGTKVEIK
notes: as for B3
For B7, binding was put at a Kd of 0.097 nM, the koff amounted to 0.00014 s⁻¹ and the on-rate constant (kon) worked out at 1.5e+06 M⁻¹ s⁻¹.

B8: D3h44 Fab H-A101S/H-A102H double-point mutant (Fab, V domains shown)
VH: EVQLVESGGGLVQPGGSLRLSCAASGFNIKEYYMHWVRQAPGKGLEWVGLIDPEQGNTIYDPKFQDRATISADNSKNTAYLQMNSLRAEDTAVYYCARDTSHYFDYWGQGTLVTVSS
VL: DIQMTQSPSSLSASVGDRVTITCRASRDIKSYLNWYQQKPGKAPKVLIYYATSLAEGVPSRFSGSGSGTDYTLTISSLQPEDFATYYCLQHGESPWTFGQGTKVEIK
notes: as for B5
B8 displayed a Kd of 0.15 nM, a koff of 0.00018 s⁻¹ and a kon of 1.2e+06 M⁻¹ s⁻¹.

B9: D3h44 Fab H-K30Q/H-E54H double-point mutant (Fab, V domains shown)
VH: EVQLVESGGGLVQPGGSLRLSCAASGFNIQEYYMHWVRQAPGKGLEWVGLIDPHQGNTIYDPKFQDRATISADNSKNTAYLQMNSLRAEDTAVYYCARDTAAYFDYWGQGTLVTVSS
VL: DIQMTQSPSSLSASVGDRVTITCRASRDIKSYLNWYQQKPGKAPKVLIYYATSLAEGVPSRFSGSGSGTDYTLTISSLQPEDFATYYCLQHGESPWTFGQGTKVEIK
notes: as for B5
Regarding B9, the Kd turned out to be 0.029 nM, the koff was found to be 2.6e-05 s⁻¹ and the on-rate (kon) was 940000 M⁻¹ s⁻¹.

B10: D3h44 Fab L-N34D/L-H91S double-point mutant (Fab, V domains shown)
VH: EVQLVESGGGLVQPGGSLRLSCAASGFNIKEYYMHWVRQAPGKGLEWVGLIDPEQGNTIYDPKFQDRATISADNSKNTAYLQMNSLRAEDTAVYYCARDTAAYFDYWGQGTLVTVSS
VL: DIQMTQSPSSLSASVGDRVTITCRASRDIKSYLDWYQQKPGKAPKVLIYYATSLAEGVPSRFSGSGSGTDYTLTISSLQPEDFATYYCLQSGESPWTFGQGTKVEIK
notes: as the heavy chain of m2 (PDB 1JPS chain H); as the light chain of m2 (PDB 1JPS chain L) with the stated changes; Tag as for m2; source: ExpiCHO, purified (Ni-NTA, SEC)
As for B10, the affinity, expressed as Kd, was 0.025 nM; the koff worked out at 3e-05 s⁻¹; the kon came out at 1.2e+06 M⁻¹ s⁻¹.

B11: D3h44 Fab L-N34D (Fab, V domains shown)
VH: EVQLVESGGGLVQPGGSLRLSCAASGFNIKEYYMHWVRQAPGKGLEWVGLIDPEQGNTIYDPKFQDRATISADNSKNTAYLQMNSLRAEDTAVYYCARDTAAYFDYWGQGTLVTVSS
VL: DIQMTQSPSSLSASVGDRVTITCRASRDIKSYLDWYQQKPGKAPKVLIYYATSLAEGVPSRFSGSGSGTDYTLTISSLQPEDFATYYCLQHGESPWTFGQGTKVEIK
notes: as for B1
Turning to B11, the Kd is 0.31 nM, the off-rate constant (koff) was 0.00062 s⁻¹ and the kon worked out at 2e+06 M⁻¹ s⁻¹.

B12: D3h44 Fab H-I59H (Fab, V domains shown)
VH: EVQLVESGGGLVQPGGSLRLSCAASGFNIKEYYMHWVRQAPGKGLEWVGLIDPEQGNTHYDPKFQDRATISADNSKNTAYLQMNSLRAEDTAVYYCARDTAAYFDYWGQGTLVTVSS
VL: DIQMTQSPSSLSASVGDRVTITCRASRDIKSYLNWYQQKPGKAPKVLIYYATSLAEGVPSRFSGSGSGTDYTLTISSLQPEDFATYYCLQHGESPWTFGQGTKVEIK
notes: as for B3
As for B12, the Kd was determined as 15 nM, the koff worked out at 0.038 s⁻¹ and the kon was found to be 3.6e+06 M⁻¹ s⁻¹.

B13: D3h44 Fab L-H91Q (Fab, V domains shown)
VH: EVQLVESGGGLVQPGGSLRLSCAASGFNIKEYYMHWVRQAPGKGLEWVGLIDPEQGNTIYDPKFQDRATISADNSKNTAYLQMNSLRAEDTAVYYCARDTAAYFDYWGQGTLVTVSS
VL: DIQMTQSPSSLSASVGDRVTITCRASRDIKSYLNWYQQKPGKAPKVLIYYATSLAEGVPSRFSGSGSGTDYTLTISSLQPEDFATYYCLQQGESPWTFGQGTKVEIK
notes: as for B1
The molecule B13 registered a Kd of 0.23 nM, a koff of 0.00038 s⁻¹ and a kon of 1.7e+06 M⁻¹ s⁻¹.
